{
  "source": "paper PMC3065461",
  "about": "“A Transient Homotypic Interaction Model for the Influenza A Virus NS1 Protein Effector Domain” (PLoS ONE, 2011)",
  "molecular_target": "the molecule itself",
  "assay": "SEC; gel filtration of the purified EDs; data not shown",
  "data": [
    {"protein": "Alb/76 NS1 effector domain (ED), residues 73-230 (domain or fragment, also called Alb/76 ED; Alb/76 NS1 ED) TDENLKIAIASSPAPRYITDMSIEEISREWYMLMPRQKITGGLMVKMDQAIMDKRITLKANFSVLFDQLETLVSLRAFTDDGAIVAEISPIPSMPGHSTEDVKNAIGILIGGLEWNDNSIRASENIQRFAWGIRDENGGPPLPPKQKRYMARRVESEV", "values": [
      {"measurement": "stoichiometry N", "result": 2}
    ]},
    {"protein": "PR8 NS1 effector domain (ED), wild type, residues 73-230 (domain or fragment, also called PR8 ED; PR8 NS1 ED) SDEALKMTMASVPASRYLTDMTLEEMSRDWSMLIPKQKVAGPLCIRMDQAIMDKNIILKANFSVIFDRLETLILLRAFTEEGAIVGEISPLPSLPGHTAEDVKNAVGVLIGGLEWNDNTVRVSETLQRFAWRSSNENGRPPLTPKQKREMAGTIRSEV", "values": [
      {"measurement": "stoichiometry N", "result": 2}
    ]}
  ]
}
